# Results reported in the DeepSol protein solubility set.
# Test: soluble on expression in E. coli; label from the status in PepcDB or PDB records
row,Sequence,soluble on expression in E. coli
1,MGSDKIHHHHHHMSADGSEYGRYFEQLQKVNLTVRLGDTGSFDGTAAITSLKGSLAWLELFGAEQPPPNTLSEGAEVSVSVWTGGALCRCDGRVETLRDDRQFAIRLVGRVRELQRREYFRLDVSIPFSYELLAGVSPEEAQERWLHERMDSWRSPAMVQEGSSWRVVDWNGRDIPSARANLSGGGMRFRVSEDVASGTLMLVSLFLPHPQPRVICVLAEALRCAEITLTLQAGTHYSLSMRFITISDKDREAVISYLFSEQRRELMSKSDRFQIGGRR,not soluble
2,MDKLSLEEKVDLLIENGIRILNKAYALEKKPVDMGHGVLLYPSEFHLIETAGKNPAENLTSISSRLGVTKGAISQMVKKLEKKGLVKKVRVPGNKKDVMLELTDFGREAFEWHKSLHESMEAGIRKELEGMSSSEMETFLRVYGHLERMLDRCMERYR,not soluble
3,MKKTQRKEIENVTNITGVRQIELWRRDDLQHPRLDEVAEEVPVALVYNGISHVVMMASPKDLEYFALGFSLSEGIIESPRDIFGMDVVPSCNGLEVQIELSSRRFMGLKERRRALAGRTGCGVCGVEQLNDIGKPVQPLPFTQTFDLNKLDDALRHLNDFQPVGRLTGCTHAAAWMLPSGELVGGHEDVGRHVALDKLLGRRSQEGESWQQGAVLVSSRASYEMVQKSAMCGVEILFAVSAATTLAVEVAERCNLTLVGFCKPGRATVYTHPQRLSN,not soluble
4,REVYVLVIGETARACNFGLYGYERNTTPLLDKMEGVVTFTDVLTQSNTTHKSVPMLLSAASAEDYDCLYRQKGIITAFKEAGFHTAFFSNQLPNHSFIDFLGMEADDWKFIKKDAPKGANISDDELLFLVEKELKAGHQKLFIVLHAYGSHFNYKERYPESMSVFKPDNLTDAKYENKEYLMNAYDNTIRYTDGFLASLITLLQKTNSFSAMLYTSDHGEDIFDDNRKLFLHASPVPSYYQLHVPFLIWLSKTYREKNVEVHEAILQNREKPVAGNASVFHTMLNLAGVQTPYRADSLSVAN,not soluble
5,MQYFSPEQQYNAWIVSDLVKQIFHKRAGCSPGIHELAVFAEEHFHIDIDFVFSIIMNIGDIEFALTDEIEKKLSGYLSTLLPYVTADMFETSKANAHAFLSRRHGNAAYHLFVSDDAFMRKQLEHHHHHH,soluble
6,MDVEAFYKISYGLYIVTSESNGRKCGQIANTVFQLTSKPVQIAVCLNKENDTHNAVKESGAFGVSVLELETPMEFIGRFGFRKSSEFEKFDGVEYKTGKTGVPLVTQHAVAVIEAKVVKECDVGTHTLFVGEAVDAEVLKDAEVLTYADYHLMKKGKTPRTATVYFESK,soluble
7,MGSDKIHHHHHHMAYFAEIFQIPFEESWGYVTNGGTEGNMFGCYLARELFPDSTLYYSKDTHYSVGKIAKLLQMKSCVIESLDNGEIDYDDLIHKIKTNKESHPIIFANIGTTMTGAIDDIEMIQERLAQIGIMRRDYYIHADAALSGMILPFVDHPQAFSFAHGIDSICVSGHKMIGSPIPCGIVVAKRQNVERISVDVDYISTRDQTISGSRNGHTVLLMWAAIRSQTNLQRRHRIQHCLKMAQYAVDRFQAVGIPAWRNPNSITVVFPCPSEHIWKKHYLATSGNMAHLITTAHHRDTRQIDSLIDDVIFDLQGASKRTVGF,not soluble
8,MGSDKIHHHHHHMMPYLAKILLYPVKSLDGVEVEKVGVLASGALQHDREFAIFDERGKFVNGKRHAKIHLLRVQFALFNRTISLQIPGGNSQQVFHLDEERQALEATLSNYFEFAVTLRQNSLMGFPDDTHSPGPTVISTATLTEVASWFPGLSVDEIRRRMRANIEIDGVPAFWEDRLFSEQGDLVSFRVGDVDFFGANPCQRCIVPTRDSYSGEAYPSFQKIFATQRQATLPNWVASSPFNHFYRLSVNTQLPISSAGKILQIGDGVDIFP,not soluble
9,MGSDKIHHHHHHMTESSINLLFSIDNRFVEQFKVTLYSLYQNTSNKNLKIYMLQKELLADHKAIERFCYQLGLSYKPIIIGEEDFKDAPVSDRYPETIYYRLLAQDYLPKSLDKILYLDADILCLNDIAPLYQMDMKNYIYAAASHVSDKSITDIVNKLRLNNFEAEGYFNSGVLLMNLEQCRQKIKPQDIMNYISRKGNTLLLPDQDVLNALYGTKTHLIPDEIYNYDARYNIIYFTRSLGEWDLDWVIENTVFLHFCGKDKPWRKDYKGRYAALYKHYQHRVKILEK,not soluble
